Holding throughout (type): cell-based, human
In data set [1] the test system is CYP3A4. The data set is described as follows: Amount of CYP3A4 protein by western blotting in FLC-4 cells on flat 24-well plate (comparative example, CONFLUENT). On the procedure:
As the culture chamber, a commercially-available 24-well plate having a flat culture surface was used. The cell culture grade was used as the grade for the culture plate.
Except for the above-mentioned conditions, the comparative example was carried out under the same conditions as those for the example.
(§1) Epidermal Growth Factor (EFG) was used as the cytokine.
(§2) DMEM/F12 (DMEM/E12 FBS(−)) containing no serum was used as a solvent for each test solution.
(§3) To study the cytokine concentrations of the second and third test solutions, test solutions respectively having EGF concentrations of 0.1 ng/mL, 1 ng/mL, and 10 ng/mL were prepared. Note that the cells were cultured in each test solution in advance to obtain a cell survival rate, and it was confirmed that the cell survival rate at these concentrations was 80% or more.
(§4) The total amount of old culture medium was removed from each well by using a pipette (culture medium removing process).
Each test solution for studying the cytokine concentration was added to each well (test solution addition process). […]
(§5) The cells corresponding to three to six wells were sonicated by a Lysis buffer containing 0.1% protease inhibitor cocktail and 1 mM PMSF (Phenylmethyl sulfonyl fluoride). […] ImmunoStar LD (Wako Pure Chemical Industries, Ltd.) was used as protein and was detected using LAS-1000 plus (Fujifilm, Tokyo).

A further data set relates to FLC-4 cells. Kind of data set: Cell survival rate of cells cultured in cytokine test solutions. As to conditions: EGF concentrations of 0.1, 1 and 10 ng/mL. On the procedure:
as §3

The subject of data set [2] is CYP3A4. Kind of data set: CYP3A4 mRNA expression by RT-qPCR in spheroid-shaped FLC-4 cells (example, MICRO-SPACE). As to conditions: EGF 10 ng/mL, drug-free vs cytokine-free and drug-free; FIG. 20.
Description: (§6) A plurality of culture chambers 10a are formed on the bottom culture surface of each well 21a. Each culture chamber 10a includes culture rooms 11a each having the equivalent diameter D of 200 μm and the height H of 100 μm. The width W of each wall 12a is 10 μm.
(§7) As cells to be cultured, FLC-4 cells which are established hepatocyte cell lines […] were used.
As a culture medium, a DMEM/F 12 culture medium containing 10% fetal bovine serum (FBS) was used. A cell suspension was adjusted at a cell seeding density of 16×10^5 cells/mL.
The cells were cultured in a CO2 incubator for 10 to 11 days. The culture medium was replaced once every three days.
as §4
A test solution or a control solution was added to each well (test solution addition process).
The cells were incubated in a CO2 incubator for eight hours, 24 hours, or 48 hours at 37° C. (contact process). […]
The analysis was made using a total amount of 20 μL of reaction liquid containing 9.6 μL of EagleTaq Master Mix with ROX (Roche, Branchburg, N.J., USA), 0.96 μL of 20× Assays-on-Demand™ Gene Expression Assay Mix (Applied Biosystems), 7.1 μL of sterilized MiliQ water, and 1.8 μL of cDNA diluted by a factor of 5, and the reaction liquid was measured by Real-time PCR.
A general note: Real-time PCR tracks product formation cycle by cycle.

Data set [3] relates to CYP3A4. Kind of data set: Amount of CYP3A4 protein by western blotting in spheroid-shaped FLC-4 cells (example, MICRO-SPACE).
Description: as §6, §7, §1, §2, §3
The total amount of old culture medium was removed from each well by using a pipette (culture medium removing process). […]
as §5
(Immunoblotting shows a protein as a band on a membrane.)

[4] abbreviates: EGF 0, 0.1, 1, 10 ng/mL, western blotting.

B1: Epidermal Growth Factor (protein, UniProt P01133 23-1207, looked up)
Pro-epidermal growth factor: PQHWSCPEGTLAGNGNSTCVGPAPFLIFSHGNSIFRIDTEGTNYEQLVVDAGVSVIMDFHYNEKRIYWVDLERQLLQRVFLNGSRQERVCNIEKNVSGMAINWINEEVIWSNQQEGIITVTDMKGNNSHILLSALKYPANVAVDPVERFIFWSSEVAGSLYRADLDGVGVKALLETSEKITAVSLDVLDKRLFWIQYNREGSNSLICSCDYDGGSVHISKHPTQHNLFAMSLFGDRIFYSTWKMKTIWIANKHTGKDMVRINLHSSFVPLGELKVVHPLAQPKAEDDTWEPEQKLCKLRKGNCSSTVCGQDLQSHLCMCAEGYALSRDRKYCEDVNECAFWNHGCTLGCKNTPGSYYCTCPVGFVLLPDGKRCHQLVSCPRNVSECSHDCVLTSEGPLCFCPEGSVLERDGKTCSGCSSPDNGGCSQLCVPLSPVSWECDCFPGYDLQLDEKSCAASGPQPFLLFANSQDIRHMHFDGTDYGTLLSQQMGMVYALDHDPVENKIYFAHTALKWIERANMDGSQRERLIEEGVDVPEGLAVDWIGRRFYWTDRGKSLIGRSDLNGKRSKIITKENISQPRGIAVHPMAKRLFWTDTGINPRIESSSLQGLGRLVIASSDLIWPSGITIDFLTDKLYWCDAKQSVIEMANLDGSKRRRLTQNDVGHPFAVAVFEDYVWFSDWAMPSVMRVNKRTGKDRVRLQGSMLKPSSLVVVHPLAKPGADPCLYQNGGCEHICKKRLGTAWCSCREGFMKASDGKTCLALDGHQLLAGGEVDLKNQVTPLDILSKTRVSEDNITESQHMLVAEIMVSDQDDCAPVGCSMYARCISEGEDATCQCLKGFAGDGKLCSDIDECEMGVPVCPPASSKCINTEGGYVCRCSEGYQGDGIHCLDIDECQLGEHSCGENASCTNTEGGYTCMCAGRLSEPGLICPDSTPPPHLREDDHHYSVRNSDSECPLSHDGYCLHDGVCMYIEALDKYACNCVVGYIGERCQYRDLKWWELRHAGHGQQQKVIVVAVCVVVLVMLLLLSLWGAHYYRTQKLLSKNPKNPYEESSRDVRSRRPADTEDGMSSCPQPWFVVIKEHQDLKNGGQPVAGEDGQAADGSMQPTSWRQEPQLCGMGTEQGCWIPVSSDKGSCPQVMERSFHMPSYGTQTLEGGVEKPHSLLSANPLWQQRALDPPHQMELTQ
modifications: Pro-epidermal growth factor
notes: Epidermal Growth Factor used as the cytokine
B1: the “function of CYP3A4 (amount of CYP3A4 protein, bands), concentration dependency” value in the data set with CYP3A4 [1] (setting [4]) was “the concentration dependency was not confirmed”; in the data set with CYP3A4 [3] (setting [4]) it was “decreases depending on the concentration”. For the same molecule, the “amount of CYP3A4 protein, second test solution versus first test solution” value was “C0 and C10 are nearly equal” with CYP3A4 [1] (EGF 10 ng/mL (C10) vs 0 ng/mL (C0), FIG. 19); “M0 is greater than M10” in the data set with CYP3A4 [3] (EGF 10 ng/mL (M10) vs 0 ng/mL (M0), FIG. 19). The same molecule returned a cell survival rate with FLC-4 cells of no less than 80%. Further, the “value of the metabolic function of CYP3A4 (mRNA expression level), second test solution versus first test solution” value with CYP3A4 [2] is listed as “lower”.

Source of the values: US10677783B2, “Method for evaluating effect of cytokine on metabolic activity of cytochrome P450, and drug screening method” (Corning Incorporated, priority 2012, dated 2020).
